Measurements reported in the supplement of paper PMC9732359.
± gives the uncertainty stated by the source.

Assay: protein stability index of a GFP-peptide fusion (yeast GPS) (PSI 1-4); higher = more stable; sorted into four equal gates, so the index is relative within each strain
Summary of the method: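 Plasmids in a pooled yeast library fused tiled 17-residue yeast protein peptides downstream of GFP and also expressed Cherry. Mid-log cultures grown without leucine were sorted into four equal gates by GFP/Cherry fluorescence ratio. Each gate's plasmids were PCR-amplified and Illumina-sequenced, and reads were matched to strains by barcodes. The protein stability index is derived by multiplying each gate's read frequency by its gate number and summing the results.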

## EVLLAGFGRKGKAKGDI [RPS23A]
doa10∆
  protein stability index: 3.41 ± 0.099
pdr5∆
  protein stability index: 3.24 ± 0.093
san1∆
  protein stability index: 3.41 ± 0.045
ubr1∆
  protein stability index: 3.22 ± 0.071

## TSKWLNSITSGGLKSCD [YDL116W/NUP84]
doa10∆
  protein stability index: 2.94 ± 0.097
pdr5∆
  protein stability index: 3.17 ± 0.089
san1∆
  protein stability index: 3.42 ± 0.078
ubr1∆
  protein stability index: 2.7 ± 0.052

## KKASEISVSSRSDREYP [SRP14]
doa10∆
  protein stability index: 3.19 ± 0.096
pdr5∆
  protein stability index: 3.1 ± 0.12
san1∆
  protein stability index: 2.99 ± 0.1
ubr1∆
  protein stability index: 2.87 ± 0.082

## AQDFINAYASFLQRQGK [RPS19A]
doa10∆
  protein stability index: 2.91 ± 0.061
pdr5∆
  protein stability index: 3.07 ± 0.064
san1∆
  protein stability index: 3.01 ± 0.06
ubr1∆
  protein stability index: 3 ± 0.046

## EAELSSTKVENSAIIQN [YIL149C/MLP2]
doa10∆
  protein stability index: 2.77 ± 0.11
pdr5∆
  protein stability index: 2.87 ± 0.069
san1∆
  protein stability index: 2.98 ± 0.056
ubr1∆
  protein stability index: 3.13 ± 0.062

## KNSSTSNTEPIPRSNRH [MED1]
doa10∆
  protein stability index: 3.1 ± 0.14
pdr5∆
  protein stability index: 3.26 ± 0.12
san1∆
  protein stability index: 2.91 ± 0.091
ubr1∆
  protein stability index: 3.18 ± 0.063

## PSCNNMLLITSGDSGVY [RPC11]
doa10∆
  protein stability index: 1.32 ± 0.077
pdr5∆
  protein stability index: 1.55 ± 0.22
ubr1∆
  protein stability index: 2.24 ± 0.17

## LQPFWFRVNNASINTSA [ECM29]
doa10∆
  protein stability index: 1.66 ± 0.1
pdr5∆
  protein stability index: 1.49 ± 0.068
san1∆
  protein stability index: 1.26 ± 0.16
ubr1∆
  protein stability index: 1.49 ± 0.071

## AKKTSTSVDGKKRSKVR [HTB2]
doa10∆
  protein stability index: 3.05 ± 0.19
pdr5∆
  protein stability index: 2.98 ± 0.23
san1∆
  protein stability index: 2.96 ± 0.27
ubr1∆
  protein stability index: 3.31 ± 0.075

## RIANIEQNHLDNNYNTA [YDL088C/ASM4]
doa10∆
  protein stability index: 3.11 ± 0.065
pdr5∆
  protein stability index: 3.18 ± 0.071
san1∆
  protein stability index: 3.08 ± 0.044
ubr1∆
  protein stability index: 3.03 ± 0.064

## KFKLLNGLAIRRAAYGV [RPS3]
doa10∆
  protein stability index: 2 ± 0.046
pdr5∆
  protein stability index: 2.15 ± 0.047
san1∆
  protein stability index: 1.88 ± 0.062
ubr1∆
  protein stability index: 1.86 ± 0.048

## YKLVNKNKENNTFTWNH [RPN4]
doa10∆
  protein stability index: 2.65 ± 0.23
pdr5∆
  protein stability index: 3.49 ± 0.27
san1∆
  protein stability index: 3.09 ± 0.082
ubr1∆
  protein stability index: 3.12 ± 0.21

## DVHLLESKVYHKLRNLA [RPN6]
doa10∆
  protein stability index: 1.95 ± 0.069
pdr5∆
  protein stability index: 2.33 ± 0.086
san1∆
  protein stability index: 2.17 ± 0.14
ubr1∆
  protein stability index: 2.13 ± 0.11

## LLKSNDPLLSLYNFLHK [RGR1]
doa10∆
  protein stability index: 2.31 ± 0.056
pdr5∆
  protein stability index: 2.23 ± 0.053
san1∆
  protein stability index: 2.54 ± 0.048
ubr1∆
  protein stability index: 2.55 ± 0.041

## EVWSVSWNLTGTILSSA [YGL100W/SEH1]
doa10∆
  protein stability index: 1.7 ± 0.07
pdr5∆
  protein stability index: 1.5 ± 0.083
san1∆
  protein stability index: 1.33 ± 0.15
ubr1∆
  protein stability index: 1.63 ± 0.061

## MAYFDENLNRNWRGREH [BRN1]
doa10∆
  protein stability index: 3.25 ± 0.099
pdr5∆
  protein stability index: 3.41 ± 0.16
san1∆
  protein stability index: 2.99 ± 0.091
ubr1∆
  protein stability index: 3.14 ± 0.095

## VRIYSGLLKRGDTVRIL [SNU114]
pdr5∆
  protein stability index: 2.92 ± 0.17
san1∆
  protein stability index: 2.66 ± 0.17
ubr1∆
  protein stability index: 3.02 ± 0.1

## EEKVIERAAQKLRLDQL [ISW2]
doa10∆
  protein stability index: 2.81 ± 0.15
pdr5∆
  protein stability index: 2.89 ± 0.14
san1∆
  protein stability index: 2.87 ± 0.12
ubr1∆
  protein stability index: 2.68 ± 0.11

## HIAHTLPEKVNFRTMQQ [SSN2]
doa10∆
  protein stability index: 2.78 ± 0.079
pdr5∆
  protein stability index: 2.92 ± 0.072
san1∆
  protein stability index: 2.83 ± 0.083
ubr1∆
  protein stability index: 2.75 ± 0.071

## NQYKLVFYQVTPEDADE [RPL22B]
doa10∆
  protein stability index: 2.21 ± 0.1
pdr5∆
  protein stability index: 2.7 ± 0.082
san1∆
  protein stability index: 2.34 ± 0.059
ubr1∆
  protein stability index: 2.14 ± 0.085

## VERIQKMIEKIEKMSTI [YIL149C/MLP2]
doa10∆
  protein stability index: 3.13 ± 0.29
pdr5∆
  protein stability index: 3.41 ± 0.14
san1∆
  protein stability index: 2.81 ± 0.19

## KDEIVLSGNSVEDVSQN [RPL9A]
pdr5∆
  protein stability index: 3.52 ± 0.26

## TDSWESFFVSVRKAITV [FAS1]
doa10∆
  protein stability index: 2.76 ± 0.27
pdr5∆
  protein stability index: 2.4 ± 0.17

## LMATEYQDIEGGFEDVE [RPB2]
doa10∆
  protein stability index: 3.43 ± 0.14
pdr5∆
  protein stability index: 3.31 ± 0.11
san1∆
  protein stability index: 3.49 ± 0.069
ubr1∆
  protein stability index: 3.44 ± 0.099

## KNMGLVPMKEENLEESF [SSN2]
doa10∆
  protein stability index: 3.07 ± 0.2
pdr5∆
  protein stability index: 3.38 ± 0.13
san1∆
  protein stability index: 2.95 ± 0.17

## AEHSQNKIDQSLQYIER [YJL041W/NSP1]
doa10∆
  protein stability index: 3.17 ± 0.069
pdr5∆
  protein stability index: 3.16 ± 0.043
san1∆
  protein stability index: 3.21 ± 0.049
ubr1∆
  protein stability index: 3.04 ± 0.048

## MSRSLANGIINVKEITE [SMC3]
doa10∆
  protein stability index: 2.63 ± 0.092
pdr5∆
  protein stability index: 2.8 ± 0.073
san1∆
  protein stability index: 2.77 ± 0.12
ubr1∆
  protein stability index: 2.87 ± 0.064

## EAAAAEEGEEEEVKEEV [RPS0B]
doa10∆
  protein stability index: 3.24 ± 0.13
pdr5∆
  protein stability index: 3.48 ± 0.049
san1∆
  protein stability index: 3.19 ± 0.069
ubr1∆
  protein stability index: 3.37 ± 0.11

## KYLDQVLDHQRAIPFRR [RPL17B]
doa10∆
  protein stability index: 2.78 ± 0.12
pdr5∆
  protein stability index: 2.35 ± 0.076
san1∆
  protein stability index: 1.87 ± 0.13
ubr1∆
  protein stability index: 1.61 ± 0.066

## NTNNNNNPANNTNNNNS [SWI1]
doa10∆
  protein stability index: 3.06 ± 0.033
pdr5∆
  protein stability index: 3 ± 0.03
san1∆
  protein stability index: 3.344 ± 0.026
ubr1∆
  protein stability index: 3.435 ± 0.026

## EDNYNPKMQWSLQDNSA [RPN4]
doa10∆
  protein stability index: 3.21 ± 0.11
pdr5∆
  protein stability index: 3.3 ± 0.13
san1∆
  protein stability index: 3.22 ± 0.087
ubr1∆
  protein stability index: 3.07 ± 0.068

## GPKLRASDLKINELFKK [RPN8]
doa10∆
  protein stability index: 1.98 ± 0.12
pdr5∆
  protein stability index: 1.42 ± 0.11
san1∆
  protein stability index: 1.1 ± 0.13
ubr1∆
  protein stability index: 1.08 ± 0.13

## MVALISKKRKLVADGVF [RPS3]
pdr5∆
  protein stability index: 1.85 ± 0.18
san1∆
  protein stability index: 1.53 ± 0.13

## NFNSSAPIADDNHSGDA [DSN1]
doa10∆
  protein stability index: 1.92 ± 0.081
pdr5∆
  protein stability index: 2.8 ± 0.1
san1∆
  protein stability index: 2.45 ± 0.09
ubr1∆
  protein stability index: 2.68 ± 0.067

## SKFHFSWNESEDTLSGY [PRP28]
doa10∆
  protein stability index: 3.07 ± 0.12
pdr5∆
  protein stability index: 3.19 ± 0.12
san1∆
  protein stability index: 3.2 ± 0.075
ubr1∆
  protein stability index: 3.47 ± 0.058

## PGVRVSGEDVIIGKTTP [RPB2]
doa10∆
  protein stability index: 3.36 ± 0.13
pdr5∆
  protein stability index: 3.41 ± 0.16
san1∆
  protein stability index: 3.61 ± 0.078
ubr1∆
  protein stability index: 3.45 ± 0.073

## PMDAYLKLNHIIANINS [SNU114]
doa10∆
  protein stability index: 1.26 ± 0.078
pdr5∆
  protein stability index: 2.59 ± 0.085
san1∆
  protein stability index: 1.97 ± 0.22
ubr1∆
  protein stability index: 2.4 ± 0.097

## FYQGKTGVVYNVTKSSV [RPL21A]
doa10∆
  protein stability index: 2.69 ± 0.11
pdr5∆
  protein stability index: 2.58 ± 0.079
san1∆
  protein stability index: 2.42 ± 0.086
ubr1∆
  protein stability index: 2.65 ± 0.071

## KVFIRESLSLKNIHISK [YML103C/NUP188]
doa10∆
  protein stability index: 2.09 ± 0.039
pdr5∆
  protein stability index: 2.21 ± 0.045
san1∆
  protein stability index: 2.01 ± 0.057
ubr1∆
  protein stability index: 1.92 ± 0.03

## ISVNSSSFSLTFFPRCI [POP1]
doa10∆
  protein stability index: 2.55 ± 0.03
pdr5∆
  protein stability index: 2.66 ± 0.035
san1∆
  protein stability index: 2.44 ± 0.039
ubr1∆
  protein stability index: 2.44 ± 0.031

## DKQGWTPLFHALAEGHG [NAS6]
doa10∆
  protein stability index: 2.75 ± 0.2
pdr5∆
  protein stability index: 2.34 ± 0.098
san1∆
  protein stability index: 2.99 ± 0.13
ubr1∆
  protein stability index: 3.01 ± 0.17

## VIVLSNISHLLEIASSI [SWI1]
doa10∆
  protein stability index: 2.35 ± 0.059
pdr5∆
  protein stability index: 1.67 ± 0.063
san1∆
  protein stability index: 2.07 ± 0.082
ubr1∆
  protein stability index: 1.8 ± 0.041

## YLEESFTNLGIIVQYLT [RGR1]
doa10∆
  protein stability index: 2.17 ± 0.2
pdr5∆
  protein stability index: 2.49 ± 0.29
san1∆
  protein stability index: 2.16 ± 0.19
ubr1∆
  protein stability index: 2.8 ± 0.09

## KIESSVESQFSAGRLYA [RPS8A]
doa10∆
  protein stability index: 2.81 ± 0.11
pdr5∆
  protein stability index: 2.85 ± 0.087
san1∆
  protein stability index: 1.96 ± 0.15
ubr1∆
  protein stability index: 2.77 ± 0.13

## SRSTEKKNDMNTSAKNK [SIR4]
doa10∆
  protein stability index: 2.52 ± 0.051
pdr5∆
  protein stability index: 2.66 ± 0.05
san1∆
  protein stability index: 2.9 ± 0.052
ubr1∆
  protein stability index: 2.88 ± 0.047

## AVCSTATVVSTNHSAAA [PGD1]
doa10∆
  protein stability index: 2.85 ± 0.064
pdr5∆
  protein stability index: 3.02 ± 0.077
san1∆
  protein stability index: 2.59 ± 0.096
ubr1∆
  protein stability index: 2.91 ± 0.061

## KRGEVVKIIRKSETSGR [RPB5]
doa10∆
  protein stability index: 3.04 ± 0.082
pdr5∆
  protein stability index: 3.17 ± 0.057
san1∆
  protein stability index: 3.2 ± 0.064
ubr1∆
  protein stability index: 3.05 ± 0.058

## EAGASAELDDCRGVSEN [RPO21]
doa10∆
  protein stability index: 3.47 ± 0.11
pdr5∆
  protein stability index: 3.54 ± 0.15
san1∆
  protein stability index: 3.26 ± 0.08
ubr1∆
  protein stability index: 3.6 ± 0.13

## QNKKNLKWVAVVPDLGH [SSN2]
doa10∆
  protein stability index: 2.67 ± 0.085
pdr5∆
  protein stability index: 3.07 ± 0.051
san1∆
  protein stability index: 2.81 ± 0.07
ubr1∆
  protein stability index: 3.02 ± 0.1

## KVKAGVRSANEDGTFSV [RRP43]
doa10∆
  protein stability index: 3.2 ± 0.097
pdr5∆
  protein stability index: 3.24 ± 0.11
san1∆
  protein stability index: 3.48 ± 0.061
ubr1∆
  protein stability index: 3.43 ± 0.077

## KAIFPNTVDGDLLKLVH [FAS1]
doa10∆
  protein stability index: 2.19 ± 0.17
pdr5∆
  protein stability index: 3.06 ± 0.14
san1∆
  protein stability index: 2.22 ± 0.14
ubr1∆
  protein stability index: 1.92 ± 0.05

## VAEKMNGCSGADVKGVC [RPT6]
doa10∆
  protein stability index: 3.41 ± 0.24
san1∆
  protein stability index: 3.19 ± 0.23
ubr1∆
  protein stability index: 3.07 ± 0.11

## PFKGEVVDGTVVSCSQH [RPB7]
doa10∆
  protein stability index: 3.04 ± 0.14
pdr5∆
  protein stability index: 3.08 ± 0.1
san1∆
  protein stability index: 2.92 ± 0.088
ubr1∆
  protein stability index: 2.56 ± 0.12
